Measurements reported in paper PMC5342261.

Tests used:
CH98 = test: ELISA
HJ16 = test: ELISA
PGV04 = test: yeast display
VRC01 [1] = test: yeast display
B12 = test: yeast display
B6 = test: yeast display
VRC01 [2] = test: ELISA

Row | Substance | percent of parent (CH98) [%] | percent of parent (HJ16) [%] | percent of parent (PGV04) [%] | percent of parent (VRC01 [1]) [%] | percent of parent (B12) [%] | percent of parent (B6) [%] | percent of parent (VRC01 [2]) [%]
1 | AE.A244gp120 I371del; P363N | 0 | 80 | – | – | – | – | –
2 | B.YU2gp120 core (ΔV1, V2, V3 loops) Q442V | – | – | 92 | 97 | 72 | 95 | –
3 | B.YU2gp120 core (ΔV1, V2, V3 loops) Q337V | – | – | 89 | 91 | 88 | 87 | –
4 | AE.A244gp120 D368R | 0 | 98 | – | – | – | – | 23
5 | B.YU2gp120 core (ΔV1, V2, V3 loops) D397F | – | – | – | 73 | 91 | 94 | –
6 | AE.A244gp120 N276A | 0 | – | – | – | – | – | 51
7 | B.YU2gp120 core (ΔV1, V2, V3 loops) D368R | – | – | 7 | 13 | – | 53 | –
8 | B.YU2gp120 core (ΔV1, V2, V3 loops) G434K | – | – | 85 | 85 | 76 | 85 | –
9 | B.YU2gp120 core (ΔV1, V2, V3 loops) G459E | – | – | 8 | 28 | 105 | 99 | –
10 | B.YU2gp120 core (ΔV1, V2, V3 loops) K490S | – | – | – | 75 | 89 | – | –
11 | B.YU2gp120 core (ΔV1, V2, V3 loops) I467K | – | – | 43 | 48 | 51 | 93 | –
12 | B.YU2gp120 core (ΔV1, V2, V3 loops) T240K | – | – | 88 | 92 | 101 | 95 | –
13 | B.YU2gp120 core (ΔV1, V2, V3 loops) E269G | – | – | 83 | 82 | 95 | 75 | –
14 | B.YU2gp120 core (ΔV1, V2, V3 loops) V200K | – | – | 96 | 99 | 94 | 90 | –
15 | B.YU2gp120 core (ΔV1, V2, V3 loops) K282V | – | – | 74 | 50 | 51 | 61 | –
16 | B.YU2gp120 core (ΔV1, V2, V3 loops) R403V | – | – | 94 | 99 | 76 | 96 | –
17 | B.YU2gp120 core (ΔV1, V2, V3 loops) H216Y | – | – | 96 | 104 | 108 | 99 | –

Row | Substance | percent of parent (CH98) [%] | percent of parent (HJ16) [%] | percent of parent (PGV04) [%] | percent of parent (VRC01 [1]) [%] | percent of parent (B12) [%] | percent of parent (B6) [%] | percent of parent (VRC01 [2]) [%]
18 | B.YU2gp120 core (ΔV1, V2, V3 loops) L405D | – | – | 104 | 109 | 80 | 99 | –
19 | B.YU2gp120 core (ΔV1, V2, V3 loops) T278K | – | – | 122 | 196 | 89 | 98 | –
20 | B.YU2gp120 core (ΔV1, V2, V3 loops) R412V | – | – | 100 | 104 | 87 | 99 | –
21 | B.YU2gp120 core (ΔV1, V2, V3 loops) L265R | – | – | 79 | 88 | 91 | 85 | –
22 | B.YU2gp120 core (ΔV1, V2, V3 loops) R476V | – | – | 91 | 62 | 97 | 13 | –
23 | AE.A244gp120 T278A | 19 | 13 | – | – | – | – | 96
24 | B.YU2gp120 core (ΔV1, V2, V3 loops) S446K | – | – | 104 | 108 | 113 | 100 | –
25 | B.YU2gp120 core (ΔV1, V2, V3 loops) G327R | – | – | 89 | 95 | 90 | 95 | –
26 | B.YU2gp120 core (ΔV1, V2, V3 loops) K231T | – | – | – | 74 | 98 | 94 | –
27 | B.YU2gp120 core (ΔV1, V2, V3 loops) G473R | – | – | 17 | 19 | 113 | 78 | –
28 | B.YU2gp120 core (ΔV1, V2, V3 loops) T455E | – | – | 31 | 49 | 14 | 92 | –
29 | B.YU2gp120 core (ΔV1, V2, V3 loops) R419G | – | – | 65 | – | 13 | 98 | –
30 | B.YU2gp120 core (ΔV1, V2, V3 loops) S365K | – | – | 8 | 31 | 28 | 97 | –
31 | B.YU2gp120 core (ΔV1, V2, V3 loops) K121T | – | – | 73 | 80 | 100 | 102 | –
32 | B.YU2gp120 core (ΔV1, V2, V3 loops) Q344V | – | – | 79 | 82 | 94 | 96 | –
33 | B.YU2gp120 core (ΔV1, V2, V3 loops) N197K | – | – | 86 | 86 | 89 | 93 | –
